Literature values as cited in publication PMC9180016.
pKd, pKi: −log10 of the molar value.

Key:
[1] = biological target: p66Shc (Homo sapiens) (UniProt P29353)
[2] = biological target: cytochrome c (UniProt P99999)
UniProt P99999, sequence (P99999 2-105): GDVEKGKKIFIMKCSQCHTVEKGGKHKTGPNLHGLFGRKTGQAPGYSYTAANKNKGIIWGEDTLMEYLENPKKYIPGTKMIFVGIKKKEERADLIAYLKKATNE

Row | pKi [2] | Substance | pKd [1]
1 | – | Mortalin (from UniProt P38646) | 6.07
2 | 5.84 | p66Shc (from UniProt P29353) | –
